# In patent publication US20250304664A1 (VIB VZW, published 2025):
# T1: NTCP consensus-mutant construct used for cryo-electron microscopy structure determination (NTCPEM) (human (consensus design), UniProt Q14973 2-328)
# T1 chain: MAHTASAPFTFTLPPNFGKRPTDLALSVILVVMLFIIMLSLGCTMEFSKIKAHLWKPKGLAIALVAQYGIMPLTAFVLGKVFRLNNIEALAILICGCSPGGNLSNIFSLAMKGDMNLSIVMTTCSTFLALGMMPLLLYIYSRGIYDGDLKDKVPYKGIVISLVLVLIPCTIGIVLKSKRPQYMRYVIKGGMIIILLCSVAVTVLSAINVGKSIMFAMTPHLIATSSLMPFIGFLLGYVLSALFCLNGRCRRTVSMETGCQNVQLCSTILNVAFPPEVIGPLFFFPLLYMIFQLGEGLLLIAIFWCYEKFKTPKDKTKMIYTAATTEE
# T2: human wild type Sodium taurocholate co-transporting polypeptide (NTCPWT) (human, UniProt Q14973 1-349)
# T2 construct: Transiently expressed in HEK293 cells; also called SLC10A1; human wildtype NTCP
# T2 sequence: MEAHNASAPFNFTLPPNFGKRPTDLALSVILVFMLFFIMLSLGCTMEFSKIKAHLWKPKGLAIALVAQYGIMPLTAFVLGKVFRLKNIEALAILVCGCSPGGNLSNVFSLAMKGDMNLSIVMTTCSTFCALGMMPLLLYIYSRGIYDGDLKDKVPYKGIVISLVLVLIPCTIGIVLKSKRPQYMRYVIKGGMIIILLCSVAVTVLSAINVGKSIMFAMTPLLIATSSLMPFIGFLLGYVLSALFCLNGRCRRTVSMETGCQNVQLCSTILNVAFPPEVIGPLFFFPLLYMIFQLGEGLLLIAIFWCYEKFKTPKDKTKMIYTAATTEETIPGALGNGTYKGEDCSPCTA
# T3: N-glycosylation knocked-out NTCP (NTCPWT_KOG) (human, UniProt Q14973 1-349)
# T3 chain: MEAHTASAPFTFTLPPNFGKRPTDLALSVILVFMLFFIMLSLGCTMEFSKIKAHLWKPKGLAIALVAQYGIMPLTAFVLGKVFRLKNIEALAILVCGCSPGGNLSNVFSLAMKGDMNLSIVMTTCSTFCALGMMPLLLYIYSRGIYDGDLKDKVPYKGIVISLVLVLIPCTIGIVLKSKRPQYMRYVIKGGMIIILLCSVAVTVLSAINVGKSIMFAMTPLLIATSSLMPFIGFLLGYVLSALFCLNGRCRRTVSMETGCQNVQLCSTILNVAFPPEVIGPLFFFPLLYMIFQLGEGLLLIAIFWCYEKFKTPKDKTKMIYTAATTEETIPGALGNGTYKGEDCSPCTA
# B1: NbNTCP_87 (VHH)
# VHH: QVQLVESGGGLVQAGGSLRLSCAVSGRTTANYNMGWFRQAPGKEREFVAGIKWSSGSTYVADSAKGRFTISRDNAKNSVYLQMDSLKPEDTALYYCAANYYGVSWFLISPSSYDYWGQGTQVTVSS
# notes: Family 21; expressed in E. coli periplasm; also called Nb87
# B2: NbNTCP_91- N27D variant (VHH)
# VHH: QVQLVESGGGLVEAGGSLRLSCAASTDLRSYAMAWFRQAPGKEREFVSFINWNYGNTRYADSVKGRFTISRDNAKITVYLQMNSLKPEDTAVYYCAAATIGRLAGIDSTTLYDYWGQGTQVTVSS
# notes: Single mutant of Nb91; also called Nb91 N27D
# B3: NbNTCP_91- L103N variant (VHH)
# VHH: QVQLVESGGGLVEAGGSLRLSCAASTNLRSYAMAWFRQAPGKEREFVSFINWNYGNTRYADSVKGRFTISRDNAKITVYLQMNSLKPEDTAVYYCAAATIGRNAGIDSTTLYDYWGQGTQVTVSS
# notes: Single mutant of Nb91; also called Nb91 L103N
# B4: NbNTCP_91- N27E variant (VHH)
# VHH: QVQLVESGGGLVEAGGSLRLSCAASTELRSYAMAWFRQAPGKEREFVSFINWNYGNTRYADSVKGRFTISRDNAKITVYLQMNSLKPEDTAVYYCAAATIGRLAGIDSTTLYDYWGQGTQVTVSS
# notes: Single mutant of Nb91; also called Nb91 N27E
# B5: NbNTCP_91- N27Q variant (VHH)
# VHH: QVQLVESGGGLVEAGGSLRLSCAASTQLRSYAMAWFRQAPGKEREFVSFINWNYGNTRYADSVKGRFTISRDNAKITVYLQMNSLKPEDTAVYYCAAATIGRLAGIDSTTLYDYWGQGTQVTVSS
# notes: Single mutant of Nb91; also called Nb91 N27Q
# B6: NbNTCP_91- R29G variant (VHH)
# VHH: QVQLVESGGGLVEAGGSLRLSCAASTNLGSYAMAWFRQAPGKEREFVSFINWNYGNTRYADSVKGRFTISRDNAKITVYLQMNSLKPEDTAVYYCAAATIGRLAGIDSTTLYDYWGQGTQVTVSS
# notes: Single mutant of Nb91; also called Nb91 R29G; NbNTOP_91- R29G variant
# B7: NbNTCP_91- R29N variant (VHH)
# VHH: QVQLVESGGGLVEAGGSLRLSCAASTNLNSYAMAWFRQAPGKEREFVSFINWNYGNTRYADSVKGRFTISRDNAKITVYLQMNSLKPEDTAVYYCAAATIGRLAGIDSTTLYDYWGQGTQVTVSS
# notes: Single mutant of Nb91; also called Nb91 R29N
# B8: NbNTCP_91- R29S variant (VHH)
# VHH: QVQLVESGGGLVEAGGSLRLSCAASTNLSSYAMAWFRQAPGKEREFVSFINWNYGNTRYADSVKGRFTISRDNAKITVYLQMNSLKPEDTAVYYCAAATIGRLAGIDSTTLYDYWGQGTQVTVSS
# notes: Single mutant of Nb91; also called Nb91 R29S
# B9: NbNTCP_91-N53D variant (VHH)
# VHH: QVQLVESGGGLVEAGGSLRLSCAASTNLRSYAMAWFRQAPGKEREFVSFINWDYGNTRYADSVKGRFTISRDNAKITVYLQMNSLKPEDTAVYYCAAATIGRLAGIDSTTLYDYWGQGTQVTVSS
# notes: Single mutant of Nb91; also called Nb91 N53D
# B10: NbNTCP_87 - S55Q variant (VHH)
# VHH: QVQLVESGGGLVQAGGSLRLSCAVSGRTTANYNMGWFRQAPGKEREFVAGIKWSQGSTYVADSAKGRFTISRDNAKNSVYLQMDSLKPEDTALYYCAANYYGVSWFLISPSSYDYWGQGTQVTVSS
# notes: Single mutant of Nb87; also called Nb87 S55Q
# B11: NbNTCP_87 - S55E variant (VHH)
# VHH: QVQLVESGGGLVQAGGSLRLSCAVSGRTTANYNMGWFRQAPGKEREFVAGIKWSEGSTYVADSAKGRFTISRDNAKNSVYLQMDSLKPEDTALYYCAANYYGVSWFLISPSSYDYWGQGTQVTVSS
# notes: Single mutant of Nb87; also called Nb87 S55E
# B12: NbNTCP_87 - S111R variant (VHH)
# VHH: QVQLVESGGGLVQAGGSLRLSCAVSGRTTANYNMGWFRQAPGKEREFVAGIKWSSGSTYVADSAKGRFTISRDNAKNSVYLQMDSLKPEDTALYYCAANYYGVSWFLISPRSYDYWGQGTQVTVSS
# notes: Single mutant of Nb87; also called Nb87 S111R
# B13: NbNTCP_87 -A30Q variant (VHH)
# VHH: QVQLVESGGGLVQAGGSLRLSCAVSGRTTQNYNMGWFRQAPGKEREFVAGIKWSSGSTYVADSAKGRFTISRDNAKNSVYLQMDSLKPEDTALYYCAANYYGVSWFLISPSSYDYWGQGTQVTVSS
# notes: Single mutant of Nb87; also called Nb87 A30Q
# Key:
# [1] = molecular target: T1, NTCP consensus-mutant construct used …; assay: cell-based or functional assay
# [2] = molecular target: T4, excitatory amino acid transporter, EAAT1 (UniProt P43003 1-542, limits assumed); assay: cell surface labelling of transfected HEK293T cells, Nb87 as primary Nb and (AntiC)2-mCherryXL as secondary Nb, fluorescence microscopy
# T4 construct: whole, on cells; Negative control expressed on HEK293T cells; also called unrelated neurotransmitter transporter
# Method: (§1) Adherent HEK293T cells were seeded at 0.3×10⁶/mL using 500 μl per well in a 24-well plate and incubated for 2 days. 5 μg of cDNA coding for NTCP, or control neurotransmitter (EAAT1) was transfected as follows: (1) 5 μg DNA was mixed with 50 μl Opti-MEM and incubated for 5 min; (2)² μl lipofeactamine was mixed with 50 μl of Opti-MEM and incubated for 5 min: (3) DNA and lipofectamine solutions were mixed in 1:1 ratio and incubated for 20 min. 100 μl of the mixture was added to each well. After incubation for 6-8 h the medium was changed to DMEM medium, and incubated for 2 days post transfection. […] Excess of primary unlabeled Nb was removed and 10 μM of the secondary labelled Nb ((AntiC)2-mCherryXL) was added following a 1 h incubation. Cells were washed once with fresh medium prior to detection of fluorescence on an inverted microscope.
# [3] = molecular target: T2, human wild type Sodium taurocholate …; assay: cell surface labelling, 20 µM Nb87 and 10 µM (AntiC)2-mCherryXL, fluorescence microscopy
# Method: as §1
# [4] = molecular target: T3, N-glycosylation knocked-out NTCP …; assay: competition with Nb91, substrate uptake read-out in HEK293 cells expressing NTCPWT-KOG, Nbs at 10 µM
# [5] = molecular target: T3, N-glycosylation knocked-out NTCP …; assay: competition with Nb87, substrate uptake read-out in HEK293 cells expressing NTCPWT-KOG, Nbs at 2 µM
# T4 sequence (P43003 whole entry): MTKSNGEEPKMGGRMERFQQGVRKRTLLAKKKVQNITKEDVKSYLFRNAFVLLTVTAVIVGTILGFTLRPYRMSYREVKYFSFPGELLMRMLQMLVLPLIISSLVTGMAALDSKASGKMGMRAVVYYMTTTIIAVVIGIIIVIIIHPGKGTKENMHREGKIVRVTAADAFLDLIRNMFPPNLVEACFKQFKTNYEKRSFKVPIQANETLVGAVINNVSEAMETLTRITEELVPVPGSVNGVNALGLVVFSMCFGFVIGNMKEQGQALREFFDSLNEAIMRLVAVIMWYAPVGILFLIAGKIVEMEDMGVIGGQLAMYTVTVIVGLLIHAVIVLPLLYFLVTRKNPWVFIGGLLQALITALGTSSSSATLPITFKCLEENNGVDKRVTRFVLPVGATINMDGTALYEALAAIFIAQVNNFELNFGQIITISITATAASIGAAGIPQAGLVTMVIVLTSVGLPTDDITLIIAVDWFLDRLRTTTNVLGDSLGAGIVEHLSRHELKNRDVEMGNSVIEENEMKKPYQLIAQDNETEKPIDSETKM
Binder,binding result [4],binding result [5],other results
B1,–,–,half-maximal inhibitory concentrations (IC50) of Na+-induced fluorescent-substrate uptake by cells expressing NTCPEM [1]: ~180 nM; binding result [2]: no binding (tested: 20 µM Nb87); binding result [3]: binds
B2,binds,–,–
B3,binds,–,–
B4,binds,–,–
B5,binds,–,–
B6,binds,–,–
B7,binds,–,–
B8,binds,–,–
B9,binds,–,–
B10,–,binds,–
B11,–,binds,–
B12,–,binds,–
B13,–,binds,–
